Data reported in patent publication US20050238685A1 (published 2005).

B1: SC3 hydrophobin of Schizophyllum commune (other, UniProt P16933 25-136, looked up)
chain: GGHPGTTTPPVTTTVTVTTPPSTTTIAAGGTCTTGSLSCCNQVQSASSSPVTALLGLLGIVLSDLNVLVGISCSPLTVIGVGGSGCSAQTVCCENTQFNGLINIGCTPINIL
notes: Used as a self-assembled film (alpha-helix state or beta-sheet state) coated on TEFLON, polyethylene, glass, microtiter wells or oil droplets; Natural SC3 is glycosylated (mannose) at its N-terminal side; also called hydrophobin SC3
B2: SC4 hydrophobin of Schizophyllum commune (other)
chain: AGQACNSGPVQCCNETTTVANAQKQGLLGGLLGVVVGPITGLVGLNCSPISVVGVLTGNSCTAQTVCCDHVTQNGLVNVGCTPISL

Columns and labels:
[1] = target: BSA (bovine serum albumin) (bovine, UniProt P02769 25-607); assay: protein on hydrophobin-coated TEFLON sheets, rinsed; TFA extraction and SDS-PAGE
Source text: BSA (bovine serum albumin) and fibronectin were immobilized on coated TEFLON™ sheets. […] The sheets were removed from the hydrophobin solution and were immediately washed with large amounts of water to remove any unbound hydrophobin. […] The presence of BSA or fibronectin on bare and coated TEFLON™ was detected extracting all protein with TFA, evaporating the TFA and loading the sample on SDS-PAGE and staining according to standard procedures.

bovine pancreas trypsin [2] = target: T1, bovine pancreas trypsin (bovine, UniProt P00760 24-246); assay: enzyme on SC3-coated TEFLON, rinsed; activity by spectrophotometry, constant after removal of the surface
T1 construct: Bought enzyme; also called 25 kD trypsin (bovine pancreas)
Procedure: The surface was first coated with SC3 hydrophobin by immersion in the protein aqueous solution (0.3 mg/mL) during approximately 30 minutes. The obtained modified surface was then immersed in an aqueous enzyme solution during approximately 30 minutes. After each step, the TEFLON™ surface was rinsed with an adequate buffer solution. […] The functionalized TEFLON® was stored at 4° C. in an Eppendorf tube containing a buffer solution.

bovine pancreas trypsin [3] = target: T1, bovine pancreas trypsin; assay: enzyme on hydrophobin-coated sheets, washed; chromogenic assay

T1 sequence (P00760 24-246): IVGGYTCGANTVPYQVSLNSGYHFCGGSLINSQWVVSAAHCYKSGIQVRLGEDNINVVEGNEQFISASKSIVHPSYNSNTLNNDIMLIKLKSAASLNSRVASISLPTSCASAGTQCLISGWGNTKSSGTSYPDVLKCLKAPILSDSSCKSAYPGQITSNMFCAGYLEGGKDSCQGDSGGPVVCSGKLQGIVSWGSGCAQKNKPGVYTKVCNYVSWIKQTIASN
BSA (bovine serum albumin), sequence (P02769 25-607 limits assumed): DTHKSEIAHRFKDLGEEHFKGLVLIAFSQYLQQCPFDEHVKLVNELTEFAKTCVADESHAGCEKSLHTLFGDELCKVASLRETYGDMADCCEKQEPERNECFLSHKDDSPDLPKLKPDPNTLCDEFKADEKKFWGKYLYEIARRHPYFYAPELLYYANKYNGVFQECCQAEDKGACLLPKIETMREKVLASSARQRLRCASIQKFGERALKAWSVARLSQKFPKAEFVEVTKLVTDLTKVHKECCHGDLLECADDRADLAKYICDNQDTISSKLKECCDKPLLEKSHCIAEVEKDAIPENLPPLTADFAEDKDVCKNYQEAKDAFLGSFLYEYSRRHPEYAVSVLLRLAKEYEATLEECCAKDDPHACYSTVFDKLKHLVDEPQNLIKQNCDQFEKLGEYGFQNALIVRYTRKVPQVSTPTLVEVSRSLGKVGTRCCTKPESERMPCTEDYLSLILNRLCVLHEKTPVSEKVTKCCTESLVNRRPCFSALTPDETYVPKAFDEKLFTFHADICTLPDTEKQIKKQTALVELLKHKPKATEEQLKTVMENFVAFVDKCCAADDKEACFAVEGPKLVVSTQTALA

Row | Binder | binding result [1] | binding result (bovine pancreas trypsin [2]) | binding result (bovine pancreas trypsin [3])
1 | B1 | binds | binds | –
2 | B2 | – | – | binds
